Data on 1 molecule can be found in US20190204338A1 (PHYLOGICA, published 2019).

Where no end group is shown, it is not given here. His tag = polyhistidine tag from vector pDEST-HisMBP; MBP = not defined here

For experiment [1], the target named is T1, MBP-MAP4K4-CNH (biotinylated, immobilised) (human, UniProt P0AEX9 27-392 = MBP; O95819 926-1213, limits assumed, biotinylated (site not given)).
T1 construct: 45 ug/ml on streptavidin biosensors; also called CNH domain of MAP4K4; biotinylated MAP4K4-CNH
Description: BLI (Octet-RED), titration, compared with MBP-RAP2A in the same system. The method, then:
(§1) Data were acquired with the Data Acquisition software version 6.2 and all steps/dilutions were performed in baseline buffer (PBS pH 8.0) at a rotation rate of 1000 rpm.
(In general: Biolayer interferometry detects binding as a change in optical thickness at a sensor tip.)

Experiment [2] concerns the target T1, MBP-MAP4K4-CNH (biotinylated, …). Description: BLI (Octet-RED), titration 100-1000 nM, global 1:1 fit, immobilised biotinylated MAP4K4-CNH. On the procedure: as §1
Experiment [3] has the same target. Put plainly: BLI (Octet-RED), single concentration 1 uM, local 1:1 fit, immobilised biotinylated MAP4K4-CNH. The method, then:
as §1

B1: MBP-25C3 (Phylomer 25C3 expressed as a His-MBP tagged fusion) (peptide)
chain: {His tag-MBP}-LGAAGPTHYDHLDCAR
modifications: reading uncertain; also: linker between MBP and peptide not given here
notes: Purified as monomeric protein; also called 25C3 fusion peptide; not shown: His tag of vector pDEST-HisMBP
As to B1, the “fold lower binding affinity than RAP2A” value in experiment [1] was 5 fold. Also, the Kd in experiment [2] amounted to 28 nM; in experiment [3], 23.5 nM. The koff in experiment [2] was 0.0001 s⁻¹; in experiment [3], 4.4e-05 s⁻¹.

For orientation: Kd means the free concentration of one partner at which half of the binding sites on the other are occupied at equilibrium, for simple one-to-one binding. Read a high Kd as lower affinity. Usually koff stands for the first-order rate constant of dissociation. The low end stands for a long-lived complex, the high end for a short-lived complex.
